This is an account of results in patent CN114736303A (YINGNUO LAKE MEDICINE HANGZHOU CO LTD, dated 2022).

In this assay the target is 4-1BB-mFc (UniProt Q07011 24-186). Briefly: SPR (Biacore), multi-cycle kinetics, antibody captured by anti-human IgG on CM5 chip, 4-1BB antigen as analyte. (In general: In SPR one partner is held on a chip, and binding of the other changes the refractive index at the surface.)

B1: hu6F9B1A6/hu10B2-scFv双功能抗体 (人源化PD-L1/4-1BB双功能抗体) (bispecific antibody, human IgG4 S228P, F234A L235A)
heavy: QVQLVQSGAEVKKPGSSVKVSCKASGYTFIGYTVHWVRQAPGQGLEWIGWIYPGSGSIKYNEKFKDRATLTADKSTSTVYMELSSLRSEDTAVYYCARHGTGKFNYFDVWGQGTTVTVSSASTKGPSVFPLAPCSRSTSESTAALGCLVKDYFPEPVTVSWNSGALTSGVHTFPAVLQSSGLYSLSSVVTVPSSSLGTKTYTCNVDHKPSNTKVDKRVESKYGPPCPPCPAPEAAGGPSVFLFPPKPKDTLMISRTPEVTCVVVDVSQEDPEVQFNWYVDGVEVHNAKTKPREEQFNSTYRVVSVLTVLHQDWLNGKEYKCKVSNKGLPSSIEKTISKAKGQPREPQVYTLPPSQEEMTKNQVSLTCLVKGFYPSDIAVEWESNGQPENNYKTTPPVLDSDGSFFLYSRLTVDKSRWQEGNVFSCSVMHEALHNHYTQKSLSLSPGKGGGGSGGGGSDVVVTQTPLSLSVTPGQPASISCRSSQSLTNSYGHTYLSWYLQKPGQSPQLLIYGISIRFSGVPDRFSGSGSGTDFTLKISRVEAEDVGVYYCLQGTHQPWTFGGGTKVEIKGGGGSGGGGSGGGGSQVQLVESGGGVVQPGRSLRLSCAASGFTFSTFGLHWVRQAPGKGLEWVAYISSDSNTIYYADTMKGRFTISRDNSKNTLYLQMNSLRAEDTAVYYCTRGDPAYYGYGGRFVYALDFWGQGTLVTVSS
VL: DIQLTQSPSFLSASVGDRVTITCRASSTVNYMHWYQQKPGKAPKPWIYATFNLASGVPSRFSGSGSGTEYTLTISSLQPEDFATYYCQTWSSYPLTFGQGTKLEIK
notes: also called hu6F9B1A6/4-1BB; hu6F9B1A6-10B2-CC
Consider B1, for which the Kd worked out at 0.423 nM, the koff was 0.000122 s⁻¹ and the kon is 289000 M⁻¹ s⁻¹.

B2: hu10B2 (人源化4-1BB抗体) (antibody, V domains shown)
VH: QVQLVESGGGVVQPGRSLRLSCAASGFTFSTFGLHWVRQAPGKGLEWVAYISSDSNTIYYADTMKGRFTISRDNSKNTLYLQMNSLRAEDTAVYYCTRGDPAYYGYGGRFVYALDFWGQGTLVTVSS
VL: DVVVTQTPLSLSVTPGQPASISCRSSQSLTNSYGHTYLSWYLQKPGQSPQLLIYGISIRFSGVPDRFSGSGSGTDFTLKISRVEAEDVGVYYCLQGTHQPWTFGGGTKVEIK
notes: The antibody was captured with anti-human IgG in SPR; also called 4-1BB(hu10B2); hu10B2 4-1BB抗体
The molecule B2 gave a Kd of 0.338 nM, a koff of 0.000204 s⁻¹ and a kon of 602000 M⁻¹ s⁻¹.

As usually defined, the Kd is the concentration at which binding is half-saturated. What is called koff is the first-order rate constant of dissociation. In general, kon refers to a measure of how fast the partners come together. A higher kon goes with fast association.
